The values that follow come from paper PMC7606508, “Synthesis of two new lipid mediators from docosahexaenoic acid by combinatorial catalysis involving enzymatic and chemical reaction” (Scientific Reports, 2020).

Common to all, as to assay: purified protein
Type in all cases: biochemical, Phormidium nigroviride
What all share (conditions): 50 mM Tris-HCl pH 8.0, 30 °C, 3 μg/mL enzyme, 25-175 μM substrate

Substrate in data set [1]: CC/C=C\C/C=C\C/C=C\C/C=C\C/C=C\CCCC(=O)O
Substrate in data set [2]: CCCCC/C=C\C/C=C\C/C=C\C/C=C\CCCC(=O)O
Substrate in data set [3]: CC/C=C\C/C=C\C/C=C\C/C=C\C/C=C\C/C=C\CCC(=O)O

B1: Osc-LOX (Phormidium nigroviride PCC 7112) (protein)
chain: MVDNMKPSLPQDDPNQEQRKDSLNRQQQAYQFDYESLSPLALLKNVPAVENFSSKYIGERILATSELPANMLAADSRTFLDPLDELQDYEDFFTLLPLPAVAKIYQTDRSFAEQRLSGANPMVLRLLDAGDPRAQTLAQISSFHPLFDLGQELQQKNIYVADYTGTDEHYRAPSKIGGGSYEKGRKFLPKPRAFFAWRWTGIRDRGEMTPIAIQLDPTPDSHVYTPFDPPVDWLFAKLCVQVADANHHEMSSHLGRTHLVMEPIAIVTARQLAQNHPLSLLLKPHFRFMLTNNELARSYLIAPGGPVDELLGGTLPETMEIAREACSTWSLDEFALPAELKNRGMDDTNQLPHYPYRDDGLLLWDAIETFVSGYLKFFYPTEIAIVQDVELQTWAQELASDRGGKVKGMPPRINTVEQLIKIVTTIIFTCGPQHSAVNFPQYEYMSFAANMPLAAYRDIPKITASGNLEVITEKDILRLLPPYKRAADQLKILFTLSAYRYDRLGYYDKSFRELYRMSFDEVFAGTPIQLLARQFQQNLNMAEQKIDANNQKRVIPYIALKPSLVINSISM
notes: N-terminal His6 tag (pET-28a, NdeI/XhoI) kept; codon-optimized synthetic gene; E. coli BL21(DE3)
For the protein B1, in “purified protein [1]”, the Km (usually the concentration of substrate that gives half-maximal velocity) is 67.0 ± 3.6 µM; the kcat – broadly, the number of substrate molecules converted per active site and unit of time at saturation – turned out to be 15.6 ± 0.452 s⁻¹; the kcat/Km – broadly, the turnover number divided by the Michaelis constant – is 233000 ± 6670 M⁻¹ s⁻¹. Also, in “purified protein [2]”, the Km came to 68.9 ± 3.5 µM, the kcat stood at 19.6 ± 0.277 s⁻¹ and the specificity constant (kcat/Km) came out at 285000 ± 10000 M⁻¹ s⁻¹. Moreover, in “purified protein [3]”, the Km was 63.9 ± 4.8 µM, the kcat was determined as 13.9 ± 0.348 s⁻¹ and the catalytic efficiency (kcat/Km) came to 218000 ± 11700 M⁻¹ s⁻¹.
